Key:
Cas1 R138G = target: T1, Cas1 R138G (Escherichia coli, UniProt Q46896 1-305, R138G); test: EMSA; 5 mM EDTA; EMSA: 7 mM Tris-HCl pH 8.5, 9% glycerol, 50 mM NaCl, 100 ug/ml BSA, 5 mM EDTA, 10 min ambient temperature, 6 nM DNA, 5% acrylamide TBE gel at room temperature; conditions: protein: recombinant; tags: N-terminal His6; chain copies: 2; label: 5'-32P; fork; 25 nt leading arm duplex, 26 nt ssDNA flap
T1 sequence: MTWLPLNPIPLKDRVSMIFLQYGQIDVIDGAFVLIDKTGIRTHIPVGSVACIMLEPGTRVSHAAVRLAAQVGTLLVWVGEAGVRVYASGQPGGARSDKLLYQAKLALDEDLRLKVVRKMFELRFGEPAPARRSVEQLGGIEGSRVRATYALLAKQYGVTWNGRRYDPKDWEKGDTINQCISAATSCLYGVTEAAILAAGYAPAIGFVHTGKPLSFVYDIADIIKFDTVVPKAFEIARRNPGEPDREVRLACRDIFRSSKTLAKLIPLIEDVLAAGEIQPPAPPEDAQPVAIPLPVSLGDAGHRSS

Cas1 R84G = target: T2, Cas1 R84G (Escherichia coli, UniProt Q46896 1-305, R84G); test: as above; conditions: protein: recombinant; tags: N-terminal His6; chain copies: 2; label: 5'-32P; fork; 25 nt leading arm duplex, 26 nt ssDNA flap
T2 sequence: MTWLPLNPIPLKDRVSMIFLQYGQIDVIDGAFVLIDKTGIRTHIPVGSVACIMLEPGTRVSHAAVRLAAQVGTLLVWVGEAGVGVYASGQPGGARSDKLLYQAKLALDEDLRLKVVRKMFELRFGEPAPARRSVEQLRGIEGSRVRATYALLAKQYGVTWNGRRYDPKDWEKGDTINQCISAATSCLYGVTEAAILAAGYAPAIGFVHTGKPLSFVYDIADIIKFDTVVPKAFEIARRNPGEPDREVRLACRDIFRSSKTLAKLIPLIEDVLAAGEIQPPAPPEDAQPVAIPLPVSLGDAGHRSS

Cas1 R123G = target: T3, Cas1 R123G (Escherichia coli, UniProt Q46896 1-305, R123G); test: as above; conditions: protein: recombinant; tags: N-terminal His6; chain copies: 2; label: 5'-32P; fork; 25 nt leading arm duplex, 26 nt ssDNA flap
T3 sequence: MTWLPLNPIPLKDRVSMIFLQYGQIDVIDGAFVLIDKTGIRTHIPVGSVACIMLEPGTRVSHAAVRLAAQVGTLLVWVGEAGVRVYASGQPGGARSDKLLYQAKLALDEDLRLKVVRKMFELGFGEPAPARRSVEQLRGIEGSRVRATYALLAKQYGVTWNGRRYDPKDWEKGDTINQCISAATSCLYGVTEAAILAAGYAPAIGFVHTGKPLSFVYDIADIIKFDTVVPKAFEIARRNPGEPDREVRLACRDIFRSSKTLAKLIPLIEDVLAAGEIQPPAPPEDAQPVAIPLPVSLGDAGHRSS

Cas1;Cas2 = target: T4, Cas1;Cas2 (Escherichia coli;Escherichia coli, UniProt Q46896;P45956 1-305;1-94, |); test: EMSA; 5 mM EDTA; super-shifted complex Y; EMSA: 7 mM Tris-HCl pH 8.5, 9% glycerol, 50 mM NaCl, 100 ug/ml BSA, 5 mM EDTA, 10 min ambient temperature, 6 nM DNA, 5% acrylamide TBE gel at room temperature; conditions: protein: recombinant;recombinant; tags: N-terminal His6;N-terminal His6; chain copies: 4;2; label: 5'-32P; fork; 25 nt leading arm duplex, 26 nt ssDNA flap
T4 sequence 1: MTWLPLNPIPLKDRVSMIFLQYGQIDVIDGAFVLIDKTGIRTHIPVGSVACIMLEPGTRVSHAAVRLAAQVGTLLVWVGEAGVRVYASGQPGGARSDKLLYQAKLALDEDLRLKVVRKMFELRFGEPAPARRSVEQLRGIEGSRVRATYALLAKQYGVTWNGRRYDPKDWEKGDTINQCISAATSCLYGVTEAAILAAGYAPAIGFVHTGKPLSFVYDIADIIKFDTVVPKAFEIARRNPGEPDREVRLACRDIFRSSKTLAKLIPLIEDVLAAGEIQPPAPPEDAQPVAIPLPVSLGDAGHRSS
T4 sequence 2: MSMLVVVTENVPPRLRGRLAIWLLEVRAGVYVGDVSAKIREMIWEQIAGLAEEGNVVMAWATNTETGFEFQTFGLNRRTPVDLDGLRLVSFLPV

B1: fork-1 (mixed)
DNA 1: CAACGTCATAGACGATTACATTGCTACATGGAGCTGTCTAGAGGATCCGA
DNA 2: TCGGATCCTCTAGACAGCTCCATGATCACTGGCACTGGTAGAATTCGGC
DNA 3: GCCGAATTCTACCAGTGCCAGTGAT
Cas1 R138G
  binding result: no binding
Cas1 R84G
  binding result: no binding
Cas1 R123G
  binding result: no binding
Cas1;Cas2
  binding result: binds
